Data reported in publication PMC9213791, “Small Molecule RPI-194 Stabilizes Activated Troponin to Increase the Calcium Sensitivity of Striated Muscle Contraction” (Frontiers in Physiology, 2022).

Key:
[1] = target: T1, recombinant human aCys-cNTnC (C35S, C84S double mutant), N-terminal regulatory domain of cardiac troponin C (human); test: NMR titration; ssTnI peptide titrated to 0.1-3 equivalents into 15N-labeled cNTnC·RPI-194 complex (115 µM, 1:1 protein and drug); 100 mM KCl, 10 mM imidazole, pH ~6.7, 30°C; 2D 1H,15N HSQC; KD from TITAN, two-state model; conditions: both partners purified
T1 construct: human cardiac/slow skeletal troponin C, N-terminal regulatory domain (cNTnC); Uniformly 15N-labeled for NMR; also called cNTnC domain; isolated cNTnC domain; source: E. coli, expressed and purified as previously described (Cai et al., 2016), lyophilized; 15N-labeled

[2] = target: T1, recombinant human aCys-cNTnC (C35S, …); test: NMR titration; ssTnI peptide (10 mM stock in d6-DMSO) titrated to 0.5-30 equivalents into 15N-labeled cNTnC (115 µM); 100 mM KCl, 10 mM imidazole, pH ~6.7, 30°C; 2D 1H,15N HSQC; KD from 2D lineshape analysis (TITAN), two-state model; no RPI-194; conditions: both partners purified

B1: slow skeletal troponin I switch peptide (ssTnI) (peptide)
chain: RVSADAMLRALLGSKHK
modifications: synthetic peptide; termini not stated. Limits not printed: taken as the ssTnI equivalent (offset -30) of the conventional cTnI switch peptide 147-163, because the paper compares it with the …
Binder B1 has a Kd [1] of 22 µM and a Kd [2] of 652 µM.
